B1: DR2 (dsDNA)
DNA 1: CCGTAAGGTCACAAGGTCACTCG
DNA 2: CGAGTGACCTTGTGACCTTACGG
B2: DR4 (dsDNA)
DNA 1: CCGTAAGGTCACAGGAGGTCACTCG
DNA 2: CGAGTGACCTCCTGTGACCTTACGG
B3: DR3 (dsDNA)
DNA 1: CCGTAAGGTCACAGAGGTCACTCG
DNA 2: CGAGTGACCTCTGTGACCTTACGG
B4: DR5 (dsDNA)
DNA 1: CCGTAAGGTCACCAGGAGGTCACTCG
DNA 2: CGAGTGACCTCCTGGTGACCTTACGG
B5: CgDR5 (dsDNA)
DNA 1: GTCCGTGATCACGGGTAGGTCAAACTG
DNA 2: CAGTTTGACCTACCCGTGATCACGGAC
B6: DR0 (dsDNA)
DNA 1: CCGTAAGGTCAAGGTCACTCG
DNA 2: CGAGTGACCTTGACCTTACGG
B7: DR1 (dsDNA)
DNA 1: CCGTAAGGTCACAGGTCACTCG
DNA 2: CGAGTGACCTGTGACCTTACGG

target: rCgTR1-240 (Crassostrea gigas, UniProt A0A0F6V015 1-240); experiment: EMSA; no ligand; homodimer and monomer bands; LightShift Chemiluminescent EMSA kit (Pierce), manufacturer's instructions; buffer, salt, pH and temperature not stated; 100-fold cold probe competition; anti-His supershift; details: protein: recombinant, tags: pET30a, label: biotin, blunt
Sequence (A0A0F6V015 entry or part of it): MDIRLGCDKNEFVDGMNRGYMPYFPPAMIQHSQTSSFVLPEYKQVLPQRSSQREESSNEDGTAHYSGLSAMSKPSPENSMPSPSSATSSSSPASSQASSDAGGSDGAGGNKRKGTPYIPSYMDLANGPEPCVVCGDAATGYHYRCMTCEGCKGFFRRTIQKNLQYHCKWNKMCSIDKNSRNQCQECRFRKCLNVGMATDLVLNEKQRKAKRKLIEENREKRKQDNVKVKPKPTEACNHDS

Binding result, binds:
B1

target: rCgTR (Crassostrea gigas, UniProt A0A0F6V015 1-479); experiment: EMSA; no ligand; LightShift Chemiluminescent EMSA kit (Pierce), manufacturer's instructions; buffer, salt, pH and temperature not stated; 100-fold cold probe competition; anti-His supershift; details: protein: recombinant, tags: pET30a, label: biotin, blunt
Sequence (A0A0F6V015 entry or part of it): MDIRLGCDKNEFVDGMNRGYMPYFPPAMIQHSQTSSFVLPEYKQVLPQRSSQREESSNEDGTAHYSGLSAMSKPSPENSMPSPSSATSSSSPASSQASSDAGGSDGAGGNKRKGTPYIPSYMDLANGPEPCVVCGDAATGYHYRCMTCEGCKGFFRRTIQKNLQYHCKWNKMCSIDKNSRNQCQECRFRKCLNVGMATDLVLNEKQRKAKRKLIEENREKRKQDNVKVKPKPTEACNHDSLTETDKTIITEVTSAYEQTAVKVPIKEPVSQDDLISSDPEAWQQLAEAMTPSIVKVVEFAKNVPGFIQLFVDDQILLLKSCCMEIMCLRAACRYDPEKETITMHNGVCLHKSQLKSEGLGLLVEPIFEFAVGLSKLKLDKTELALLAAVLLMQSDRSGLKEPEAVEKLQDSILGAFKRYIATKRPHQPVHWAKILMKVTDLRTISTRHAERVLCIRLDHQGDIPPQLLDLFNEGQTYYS

Binding result, binds:
B2
B3
B4
B1
B5
B6
B7

— publication PMC4692385, “Identification of Thyroid Hormones and Functional Characterization of Thyroid Hormone Receptor in the Pacific Oyster Crassostrea gigas Provide Insight into Evolution of the Thyroid Hormone System”
